The assay concerns the target Chloride Intracellular Channel 1 (CLIC1), human, with N-terminal twin strep tag (human) (UniProt O00299). In words: mass photometry.

For one substance, stoichiometry N results are on record in paper doi:10.1101/638080.

A word on the stoichiometry N: it is a count of units in the complex or per binding partner.

For the substance “Chloride Intracellular Channel 1 (CLIC1), human, with N-terminal twin strep tag (from UniProt O00299 1-241) (natural protein)”, the stoichiometry N stood at 6.
